# Assay results: publication PMC3967872 (DNA repair, 2014)
# T1: His-tagged full-length S. pombe Apn2 with Asn at position 254 (His-Apn2^N254) (S. pombe, UniProt P87175 1-523)
# T1 sequence (looked up): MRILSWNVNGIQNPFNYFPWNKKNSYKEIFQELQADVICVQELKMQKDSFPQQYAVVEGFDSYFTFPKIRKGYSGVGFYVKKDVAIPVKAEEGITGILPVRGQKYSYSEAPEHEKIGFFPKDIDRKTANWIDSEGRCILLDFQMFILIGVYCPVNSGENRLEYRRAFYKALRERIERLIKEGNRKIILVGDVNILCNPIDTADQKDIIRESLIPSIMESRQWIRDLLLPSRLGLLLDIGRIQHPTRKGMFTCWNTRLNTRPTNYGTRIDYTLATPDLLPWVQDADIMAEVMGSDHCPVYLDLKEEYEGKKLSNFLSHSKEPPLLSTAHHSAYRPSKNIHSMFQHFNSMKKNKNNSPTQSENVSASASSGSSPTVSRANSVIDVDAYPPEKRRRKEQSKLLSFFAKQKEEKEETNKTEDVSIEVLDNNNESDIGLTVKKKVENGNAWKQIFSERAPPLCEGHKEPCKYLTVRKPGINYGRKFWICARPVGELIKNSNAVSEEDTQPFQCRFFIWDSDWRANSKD
# T2: His-tagged full-length SpApn2^N254/S295, catalytically inactive mutant (His-Apn2^S295) (S. pombe, UniProt P87175 1-523, H295S)
# T2 sequence (looked up): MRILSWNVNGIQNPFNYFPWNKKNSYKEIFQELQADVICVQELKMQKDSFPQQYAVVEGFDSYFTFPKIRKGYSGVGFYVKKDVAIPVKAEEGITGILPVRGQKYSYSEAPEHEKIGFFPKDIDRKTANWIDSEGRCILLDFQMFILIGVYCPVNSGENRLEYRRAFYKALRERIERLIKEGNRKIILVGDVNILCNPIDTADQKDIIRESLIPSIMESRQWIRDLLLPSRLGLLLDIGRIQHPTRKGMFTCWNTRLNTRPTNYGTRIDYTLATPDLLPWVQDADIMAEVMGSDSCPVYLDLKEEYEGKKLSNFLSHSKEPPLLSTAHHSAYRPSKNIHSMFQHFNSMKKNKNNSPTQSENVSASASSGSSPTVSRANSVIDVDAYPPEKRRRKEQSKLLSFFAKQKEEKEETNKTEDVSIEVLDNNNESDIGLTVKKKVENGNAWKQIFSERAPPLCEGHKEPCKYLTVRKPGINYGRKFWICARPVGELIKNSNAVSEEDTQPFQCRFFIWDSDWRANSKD
# B1: GST fusion of S. pombe Myh1(245-461) (domain or fragment, UniProt Q10159 245-461, looked up)
# chain: YQEQNVIRDGNTIKYDIEDVPCNICITDIPSKEDLQNWVVARYPVHPAKTKQREERALVVIFQKTDPSTKEKFFLIRKRPSAGLLAGLWDFPTIEFGQESWPKDMDAEFQKSIAQWISNDSRSLIKKYQSRGRYLHIFSHIRKTSHVFYAIASPDIVTNEDFFWISQSDLEHVGMCELGLKNYRAALEIKKRKVTSLSNFKEPKLTSARRIVTKAEC
# B2: GST fusion of intact wild-type S. pombe Myh1 (GST-Myh1) (enzyme, UniProt Q10159 1-461, looked up)
# chain: MSDSNHSLDLHSYTQLEVERFRESLIQFYDKTKRILPWRKKECIPPSEDSPLEDWEQPVQRLYEVLVSEIMLQQTRVETVKRYYTKWMETLPTLKSCAEAEYNTQVMPLWSGMGFYTRCKRLHQACQHLAKLHPSEIPRTGDEWAKGIPGVGPYTAGAVLSIAWKQPTGIVDGNVIRVLSRALAIHSDCSKGKANALIWKLANELVDPVRPGDFNQALMELGAITCTPQSPRCSVCPISEICKAYQEQNVIRDGNTIKYDIEDVPCNICITDIPSKEDLQNWVVARYPVHPAKTKQREERALVVIFQKTDPSTKEKFFLIRKRPSAGLLAGLWDFPTIEFGQESWPKDMDAEFQKSIAQWISNDSRSLIKKYQSRGRYLHIFSHIRKTSHVFYAIASPDIVTNEDFFWISQSDLEHVGMCELGLKNYRAALEIKKRKVTSLSNFKEPKLTSARRIVTKAEC
# How the values were obtained:
# Assay in all cases: pull-down
# [1] = target: T1, His-tagged full-length S. pombe Apn2 …
# [2] = target: T2, His-tagged full-length …
# [3] = target: B1
# [4] = target: B2
binding result [1],Binder,other results
binds,B1,–
binds,"GST fusion of S. pombe Myh1(I261A) (enzyme, UniProt Q10159 1-461, looked up) MSDSNHSLDLHSYTQLEVERFRESLIQFYDKTKRILPWRKKECIPPSEDSPLEDWEQPVQRLYEVLVSEIMLQQTRVETVKRYYTKWMETLPTLKSCAEAEYNTQVMPLWSGMGFYTRCKRLHQACQHLAKLHPSEIPRTGDEWAKGIPGVGPYTAGAVLSIAWKQPTGIVDGNVIRVLSRALAIHSDCSKGKANALIWKLANELVDPVRPGDFNQALMELGAITCTPQSPRCSVCPISEICKAYQEQNVIRDGNTIKYDAEDVPCNICITDIPSKEDLQNWVVARYPVHPAKTKQREERALVVIFQKTDPSTKEKFFLIRKRPSAGLLAGLWDFPTIEFGQESWPKDMDAEFQKSIAQWISNDSRSLIKKYQSRGRYLHIFSHIRKTSHVFYAIASPDIVTNEDFFWISQSDLEHVGMCELGLKNYRAALEIKKRKVTSLSNFKEPKLTSARRIVTKAEC",–
binds,B2,binding result [2]: binds
–,"His-tagged full-length S. pombe Apn2 with Ser at position 254 (His-Apn2^S254) (enzyme, UniProt P87175 1-523, looked up) MRILSWNVNGIQNPFNYFPWNKKNSYKEIFQELQADVICVQELKMQKDSFPQQYAVVEGFDSYFTFPKIRKGYSGVGFYVKKDVAIPVKAEEGITGILPVRGQKYSYSEAPEHEKIGFFPKDIDRKTANWIDSEGRCILLDFQMFILIGVYCPVNSGENRLEYRRAFYKALRERIERLIKEGNRKIILVGDVNILCNPIDTADQKDIIRESLIPSIMESRQWIRDLLLPSRLGLLLDIGRIQHPTRKGMFTCWSTRLNTRPTNYGTRIDYTLATPDLLPWVQDADIMAEVMGSDHCPVYLDLKEEYEGKKLSNFLSHSKEPPLLSTAHHSAYRPSKNIHSMFQHFNSMKKNKNNSPTQSENVSASASSGSSPTVSRANSVIDVDAYPPEKRRRKEQSKLLSFFAKQKEEKEETNKTEDVSIEVLDNNNESDIGLTVKKKVENGNAWKQIFSERAPPLCEGHKEPCKYLTVRKPGINYGRKFWICARPVGELIKNSNAVSEEDTQPFQCRFFIWDSDWRANSKD",fold weaker interaction than intact Myh1 [3]: 2 fold
–,"His- and maltose binding protein (MBP)-tagged SpApn2 residues 1-303 (His-MBP-Apn2^1-303) (domain or fragment, S. pombe, UniProt P87175 1-303, looked up) MRILSWNVNGIQNPFNYFPWNKKNSYKEIFQELQADVICVQELKMQKDSFPQQYAVVEGFDSYFTFPKIRKGYSGVGFYVKKDVAIPVKAEEGITGILPVRGQKYSYSEAPEHEKIGFFPKDIDRKTANWIDSEGRCILLDFQMFILIGVYCPVNSGENRLEYRRAFYKALRERIERLIKEGNRKIILVGDVNILCNPIDTADQKDIIRESLIPSIMESRQWIRDLLLPSRLGLLLDIGRIQHPTRKGMFTCWSTRLNTRPTNYGTRIDYTLATPDLLPWVQDADIMAEVMGSDHCPVYLDLK",binding result [4]: binds
